Experimental findings from patent US20250145679A1 (WUXI BIOLOGICS IRELAND, published 2025) are described below.

Experiment [1] concerns the target T1, human lymphoma (HH) cell line (human).
T1 construct: Cells, not a defined protein
The experiment in a line: binding to HH cells, dose-dependent (FIG. 5); receptor on the cells not named.

Experiment [2] concerns the target T2, IL-2/15Rβ (CD122) ECD (human, UniProt P14784 27-239).
T2 construct: The SPR text names the analyte only as 'W327151-hPro2.ECD.His'; also called Receptor β; IL-15Rβ
T2 sequence: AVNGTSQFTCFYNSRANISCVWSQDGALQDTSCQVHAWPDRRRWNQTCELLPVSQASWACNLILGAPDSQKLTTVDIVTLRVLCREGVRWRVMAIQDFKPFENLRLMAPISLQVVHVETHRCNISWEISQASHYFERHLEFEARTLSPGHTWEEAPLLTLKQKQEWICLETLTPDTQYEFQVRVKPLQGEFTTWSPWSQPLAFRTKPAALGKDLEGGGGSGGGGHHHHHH
The experiment in a line: SPR, Biacore 8K, complex captured on anti-human Fc CM5 chip, receptor ECD-His injected. Here is the method:
IL-15 variants binding affinity to its receptor were detected by SPR using Biacore 8K. Each variant was captured on anti-human Fc immobilized CM5 sensor chip (cytiva). W327151-hPro2.ECD.His at different concentrations were injected over the sensor chip at a flow rate of 30 uL/min for an association phase of 120 s, followed by 120 s dissociation. The chip was then regenerated by 10 mM Glycine-HCl pH 1.5 after each binding cycle.
Background: Surface plasmon resonance follows binding to a sensor surface in real time, without labels.

In general, EC50 refers to the concentration giving half of the maximal effect. As usually defined, the Kd is the constant that tells how readily two partners part at equilibrium. One may read the koff as the rate constant with which the complex falls apart. For orientation: kon means the rate constant with which the complex forms. Low readings indicate slow association, high ones fast association.

B1: W327151-TXU1.P1-V0013.uIgG4V322 (Fc fusion)
chain 1: NWVNVISDLKKIEDLIQSMHIDATLYTESDVHPSCKVTAMKCFLLELQVISLESGDASIHDTVENLIILANNSLSSNGNVTESGCKECEELEEKNIKEFLQSFVHIVQMFESKYGPPCPPCPAPEAAGGPSVFLFPPKPKDTLMISRTPEVTCVVVDVSQEDPEVQFNWYVDGVEVHNAKTKPREEQFNSTYRVVSVLTVLHQDWLNGKEYKCKVSNKGLPSSIEKTISKAKGQPREPQVYTLPPCQEEMTKNQVSLWCLVKGFYPSDIAVEWESNGQPENNYKTTPPVLDSDGSFFLYSRLTVDKSRWQEGNVFSCSVMHEALHNHYTQKSLSLSLGK
chain 2: ITCPPPMSVEHADIWVKSYSLYSRERYICNSGFKRKAGTSSLTECVLNKATNVAHWTTPSLKCIRESKYGPPCPPCPAPEAAGGPSVFLFPPKPKDTLMISRTPEVTCVVVDVSQEDPEVQFNWYVDGVEVHNAKTKPREEQFNSTYRVVSVLTVLHQDWLNGKEYKCKVSNKGLPSSIEKTISKAKGQPREPQVCTLPPSQEEMTKNQVSLSCAVKGFYPSDIAVEWESNGQPENNYKTTPPVLDSDGSFFLVSRLTVDKSRWQEGNVFSCSVMHEALHNHYTQKSLSLSLGK
notes: Heterodimeric IL-15/IL-15Ralpha-Fc polypeptide complex; IgG4 Fc with S228P and F234A/L235A, knob-into-hole
B1 showed an EC50 in experiment [1] of 91.9 nM. For the same molecule, in experiment [2], the dissociation constant Kd was determined as 7.9 nM, the dissociation rate constant (koff) stood at 0.00483 s⁻¹ and the on-rate (kon) stood at 612000 M⁻¹ s⁻¹.
